For data set [1], the target named is S. epidermidis delta-haemolysin (Staphylococcus epidermidis). In words: tryptophan fluorescence, urea dissociation of multimeric peptide complexes, 5 µM peptide.
For data set [2] the target is unchanged. Kind of data set: tryptophan fluorescence, urea dissociation of multimeric peptide complexes, 25 µM peptide.
The nature of data set [3]: tryptophan fluorescence, urea dissociation of multimeric peptide complexes, 5 µM peptide.
Data set [4] in a line: tryptophan fluorescence, urea dissociation of multimeric peptide complexes, 25 µM peptide.

“S. epidermidis delta-haemolysin (peptide)”: the deltaG (H2O) (5 µM peptide) in data set [1] worked out at 1.43 kcal/mol. Further, in data set [2], the deltaG (H2O) (25 µM peptide) was found to be 1.57 kcal/mol.

On to S. epidermidis delta-haemolysin, for which the “midpoint of urea unfolding curve (5 µM peptide)” value in data set [3] was “The midpoints of the unfolding curves of 5 µM and 25 µM were 2.14 and 3.20M urea”. Also, in data set [4], the “midpoint of urea unfolding curve (25 µM peptide)” value is “The midpoints of the unfolding curves of 5 µM and 25 µM were 2.14 and 3.20M urea”.
